Several values for one entry are separate records, joined by “and”; a condition that tells them apart may be missing. Equal values may be shown once.
Assays:
[1] = system: bFGF-induced angiogenesis (rat cornea neovascularization); test: Rat corneal micropocket assay for angiogenesis; format: in vivo
Description: In vivo angiogenesis was assessed using the rat cornea micropocket assay as previously described [Addison et al. cited above]. Briefly, reagents were diluted in PBS plus 0.25% serum albumin to their final concentration per pellet of Hydron casting solution (Hydro Med Sciences, New Brunswick N.J.). 5 μl aliquots were pipetted onto the flat surface of a sterile polypropylene specimen container and were allowed to polymerize overnight under UV light in a laminar flow hood. Prior to implantation, the pellets were rehydrated with normal saline. Animals were given 150 mg/kg ketamine and 250 μg/kg atropine, and the corneas were anesthetized with 0.5% proparacaine hydrochloride ophthalmic solution followed by implantation of the Hydron pellet into an intracorneal pocket (1-2 mm from the limbus). Six days after implantation, animals received heparin (1000 U) and ketamine (150 mg/kg) i.p. 30 min prior to sacrifice, followed by perfusion with 10 ml of colloidal carbon via the left ventricle. Corneas were then harvested and photographed. […] Sustained directional ingrowth of capillary sprouts and hairpin loops toward the implant were considered positive neovascularization responses.

[2] = Heparin-Sepharose affinity chromatography (heparin affinity); format: binding; conditions: for salt concentration at elution from heparin-Sepharose column: linear NaCl gradient 0.05-2 M, pH 7.4
Description: For large scale PF4 production, outdated platelets (Red Cross blood transfusion centre, Belgium) were stimulated with 1 U/ml thrombin (Sigma, St. Louis, Mo.) for 2 h at 37° C. in PBS. The conditioned medium was subsequently purified by a purification procedure previously described [Struyf et al (2003), cited above, Van Damme et al. (1992) J Exp Med 176, 59-65; Struyf et al. (2000) in Balkwill, F. ed. Cytokine molecular biology, a practical approach. Oxford, UK, Oxford University Press, pp 73-88]. The conditioned media (1 to 5 liters) were first concentrated and partially purified by adsorption to silica (“Silica Matrex”; pore size 100 A, particle size 35-70 μm; Millipore, Billerica, Mass.; 10 g/l conditioned medium). After 2 h of magnetical stirring at 4° C., the silicic acid was sedimented by centrifugation and subsequently washed once with PBS and once with PBS containing 1 M NaCl pH 7.4. Elution of proteins from the silica matrix was done by magnetically stirring three consecutive times with 100 ml of PBS containing 1.4 M NaCl and 50% ethylene glycol pH 7.4 during 30 min at 4° C. A second elution with 0.3 M glycine/HCl pH 2.0 buffer (2×100 ml) was performed to improve recovery of chemokines. Subsequently, the pooled eluates (500 ml) were dialyzed against equilibration/loading buffer (50 mM Tris/HCl-50 mM NaCl, pH 7.4) before fractionation by heparin-Sepharose chromatography (Amersham Pharmacia Biotech, Uppsala, Sweden). Proteins were eluted from the column in a linear NaCl gradient (0.05-2 M NaCl in the loading buffer; 5 ml-fractions). For all fractions, the protein concentration was determined by a Coomassie blue G-250 binding assay using the Bio-Rad commercial kit (Bio-Rad Laboratories, Hercules, Calif.). […] Purified fractions were analyzed by SDS-PAGE under reducing conditions to determine purity. […]

[3] = system: Human lung microvascular endothelial cells (HMVEC-L); test: Endothelial cell chemotaxis assay (bFGF- or CXCL8-induced HMVEC migration); format: cell-based; conditions: for inhibition of CXCL8-induced HMVEC chemotaxis: CXCL8 80 ng/ml; for inhibition of the migration of the cells: at a concentration of 50 ng/ml; for inhibition of bFGF-induced HMVEC chemotaxis: bFGF 50 ng/ml; for migration of HMVEC toward bFGF or CXCL8 (FIG. 4 Panel C): test protein 50 ng/ml, bFGF 50 ng/ml or CXCL8 80 ng/ml
Description: Human lung microvascular endothelial cells (HMVEC-L) were obtained from Clonetics (Walkersville, Md.), and were cultured following the manufacturer's instructions in EBM-2 medium supplemented with the EGM-2-MV “bulletkit” containing FCS, ascorbic acid, hydrocortisone, fibroblast growth factor (FGF), vascular endothelial growth factor (VEGF), insulin-like growth factor I (IGF-I) and epidermal growth factor (EGF). Endothelial cell chemotaxis assays were performed as previously described [Addison et al. (2002) J Immunol 165, 5269-5277]. Cells were harvested by trypsinization, resuspended in EBM-2 medium without growth factors with 2% FCS added. An aliquot of 160 μl containing 5×10^5 cells/ml was added to each of the lower wells of a 12-well chemotaxis chamber (Neuro Probe Inc., Cabin John Md.). The chambers were assembled (by placing 0.1% gelatin coated 5 μm pore size filters over the lower wells, followed by a gasket and the upper chamber) and incubated at 37° C. in a CO2 incubator for 2 h in an inverted position. The chambers were then turned upright, and 100 μl aliquots of sample dilutions were added to the upper wells of the chamber. As endothelial cell chemoattractants CXCL8 and bFGF (both from Peprotech) were used. The chambers were placed in a 37° C. CO2 incubator for 2 h at which time the filters were removed, and subjected to Diff-Quik staining. The total number of migrated cells was counted in 15 separate fields of view under 400× power.

murine melanoma cells = conditions: systemic treatment, mice injected i.v. with murine melanoma cells; cited from earlier work
B16 melanoma tumors = test: Intratumoral injection of B16 melanoma tumors; format: in vivo, athymic nu/nu mice; conditions: 1 μg recombinant human PF4var1, 6 intratumoral injections over 2 weeks, B16 melanoma in nu/nu mice
Description: Animal experiments were approved by the local animal ethics committee (University of Leuven), and conducted in conformity with the Belgian and European guidelines for the protection of animals used for scientific purposes. Experiments were performed with 6 to 8 weeks old female athymic nu/nu mice (NMRI background) kept in a specific pathogen-free environment (Elevage Janvier, Le Genest Saint Isle, France). Two consecutive experiments were performed, the first comprising 20 mice, the second 18 mice. B16 melanoma cells in log phase (2×10^6 cells resuspended in 200 μl of PBS) were injected subcutaneously on day 1 in the right dorsal flank. Animals were injected at the tumor site with 50 μl of test sample, i.e. endotoxin-free saline (0.9% NaCl, Baxter, Lessines, Belgium), 5 pg of natural human PF4 or 1 μg of recombinant human PF4var1 in saline. Treatment started on day 3, in total 6 intratumoral injections were administered three times a week over a period of 2 weeks. All animals were observed three times a week, the tumor dimensions were measured with calipers and tumor size was calculated (tumor volume=4/3Πab^2; a is the smallest diameter/2 and b is the largest diameter/2 in millimeters). At the end of the experiments tumor size was calculated more precisely after dissection of the tumor using the formula 4/3Πabc (a, b and c width/2, length/2 and depth/2, respectively). […]

[4] = 50 ng of the cytokine alone, six days after implantation
[5] = 50 ng combined with bFGF (50 ng)

| Molecule | No of neg pellets (no neovascularization / total pellets implanted) [1, 4] | No of pos pellets (angiogenic response / total pellets implanted) [1, 4] | % inhibition of bFGF-induced angiogenesis [1, 5] [%] | No of neg pellets (no neovascularization / total pellets implanted) [1, 5] | No of pos pellets (angiogenic response / total pellets implanted) [1, 5] | salt concentration at elution from heparin-Sepharose column [2] | inhibition of CXCL8-induced HMVEC chemotaxis ([3]; test protein 300 ng/ml) | inhibition of the migration of the cells [3] [%] | inhibition of migration of HMVEC ([3]; at concentrations as high as 300 ng/ml, toward bFGF or CXCL8) | inhibition of bFGF-induced HMVEC chemotaxis ([3]; test protein 300 ng/ml) | migration of HMVEC toward bFGF or CXCL8 (FIG. 4 Panel C) [3] | dose for optimal inhibition of metastases or lung weight (murine melanoma cells) | tumor growth (B16 melanoma tumors) | heparin binding affinity compared with PF4 ([2]; based on elution at lower salt concentrations from heparin-Sepharose) | inhibition of CXCL8-induced HMVEC chemotaxis ([3]; test protein 10-100 ng/ml) | potency on angiogenesis relative to PF4 ([3]; PF4var1 versus PF4) [fold] | inhibition of bFGF-induced HMVEC chemotaxis ([3]; test protein 10-100 ng/ml) | concentration giving an inhibition of 50% of the migration of HMVEC ([3]; chemotaxis of HMVEC toward bFGF or CXCL8) |
| --- | --- | --- | --- | --- | --- | --- | --- | --- | --- | --- | --- | --- | --- | --- | --- | --- | --- | --- |
| bFGF: Fibroblast growth factor used as endothelial cell chemoattractant and angiogenesis inducer (Peprotech) [reference compound] | 0/25 | 25/25 |  |  |  |  |  |  |  |  |  |  |  |  |  |  |  |  |
| PF4: Platelet Factor 4, CXC chemokine; authentic natural human PF4 purified from platelets as comparator (protein) EAEEDGDLQCLCVKTTSQVRPRHITSLEVIKAGPHCPTAQLIATLKNGRKICLDLQAPLYKKIIKKLLES | 17/22 | 5/22 | 23 | 5 of 22 and 5/22 | 17/22 | 1.6-1.8 M NaCl | failed to inhibit | ~80 | practically no inhibition | failed to inhibit | reduce migration | > 5 mg PF4 per kg of body weight |  |  |  |  |  |  |
| PF4var1: natural and recombinant versions of the human natural variant of the PF4 protein; 70 amino acid mature form, SEQ ID NO: 1 (protein, listed as Homo sapiens, mat_peptide (1)..(70) PFvar1) EAEEDGDLQCLCVKTTSQVRPRHITSLEVIKAGPHCPTAQLIATLKNGRKICLDLQALLYKKIIKEHLES | 21/22 | 1/22 | 73 | 16 of 22 and 16/22 | 6/22 | 1-1.4 M NaCl |  | ~100 |  |  | reduce migration |  | capable of reducing tumor growth | lower affinity than PF4 | completely blocked | 100 | completely blocked | around 2.5 ng/ml |
